Assay [1] has as its target unphosphorylated smooth muscle myosin (chicken (endogenous in gizzard)) (UniProt P10587).
Assay [2] has the same target. Kind of assay: ELISA.
For assay [3] the target is unchanged. The assay can be described thus: co-sedimentation.
In assay [4] the target is phosphorylated smooth muscle myosin (chicken (endogenous in gizzard)) (UniProt P10587). The assay can be described thus: co-sedimentation.
The target of assay [5] is smooth muscle myosin (phosphorylated) (Gallus gallus) (UniProt P10587). Conditions: cited from earlier work.
Assay [6] deals with phosphorylated smooth muscle myosin (pSMM) (Gallus gallus) (UniProt P10587). Conditions: cited from earlier work.

Data on four substances can be found in PMC2742357.

Sequence of MLCK (P11799 935-1906): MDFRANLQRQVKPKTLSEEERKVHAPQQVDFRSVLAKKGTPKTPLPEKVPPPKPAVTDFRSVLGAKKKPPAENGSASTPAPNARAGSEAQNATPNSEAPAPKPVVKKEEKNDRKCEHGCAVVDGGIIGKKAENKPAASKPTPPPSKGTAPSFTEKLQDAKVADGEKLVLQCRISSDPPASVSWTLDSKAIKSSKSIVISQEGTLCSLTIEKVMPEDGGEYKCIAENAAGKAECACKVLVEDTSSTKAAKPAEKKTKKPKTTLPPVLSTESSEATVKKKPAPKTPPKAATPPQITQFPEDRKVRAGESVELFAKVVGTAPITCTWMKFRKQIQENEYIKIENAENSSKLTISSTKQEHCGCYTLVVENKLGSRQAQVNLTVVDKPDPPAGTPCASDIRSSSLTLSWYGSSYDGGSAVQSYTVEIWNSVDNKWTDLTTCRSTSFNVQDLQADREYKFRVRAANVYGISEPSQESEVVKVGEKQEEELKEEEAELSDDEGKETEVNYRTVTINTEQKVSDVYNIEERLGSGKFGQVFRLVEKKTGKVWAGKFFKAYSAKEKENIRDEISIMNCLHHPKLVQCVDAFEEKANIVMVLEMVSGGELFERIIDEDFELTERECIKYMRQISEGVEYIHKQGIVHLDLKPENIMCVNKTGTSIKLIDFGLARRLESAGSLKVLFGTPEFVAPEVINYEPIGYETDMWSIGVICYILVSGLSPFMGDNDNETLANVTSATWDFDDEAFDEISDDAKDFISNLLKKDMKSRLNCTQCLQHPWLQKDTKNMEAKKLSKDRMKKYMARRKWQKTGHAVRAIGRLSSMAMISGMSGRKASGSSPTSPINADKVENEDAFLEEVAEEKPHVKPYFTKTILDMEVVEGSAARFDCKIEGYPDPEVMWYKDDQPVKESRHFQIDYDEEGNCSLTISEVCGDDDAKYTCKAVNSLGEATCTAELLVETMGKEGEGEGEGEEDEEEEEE

As to telokin (natural protein), in assay [1], the dissociation constant Kd (commonly a measure of binding affinity in units of concentration) is 5 µM. For the same substance, in assay [2], the percent of actin displaced from the SMM coverslip at 50 uM telokin was 9%. Moreover, the percent of actin displaced from SMM filaments at 50 uM telokin in assay [3] turned out to be 5%.

Take “smooth muscle myosin light chain kinase (enzyme)”: the Kd of the more weakly bound MLCK pool is 23.8 µM in assay [4] and 9.5 µM in assay [3]. The same substance registered a percent of MLCK bound to SMM, spin 2 in assay [3] of 75%.

With MLCK (from UniProt P11799), in assay [5], the Kd is 770 nM.

Consider “smooth muscle myosin light chain kinase (MLCK) (from UniProt P11799)”, for which the equilibrium dissociation constant (Kd) in assay [6] is above 100 µM.
